Assay [1] addresses T1, rat LINGO-1 expressed on CHO-K1 cells (CHO-K1-rLINGO-1) (rat, UniProt A0A8I5ZPI2 34-614).
T1 construct: range 34-614; not shown: 2 amino acid residue linker
T1 sequence: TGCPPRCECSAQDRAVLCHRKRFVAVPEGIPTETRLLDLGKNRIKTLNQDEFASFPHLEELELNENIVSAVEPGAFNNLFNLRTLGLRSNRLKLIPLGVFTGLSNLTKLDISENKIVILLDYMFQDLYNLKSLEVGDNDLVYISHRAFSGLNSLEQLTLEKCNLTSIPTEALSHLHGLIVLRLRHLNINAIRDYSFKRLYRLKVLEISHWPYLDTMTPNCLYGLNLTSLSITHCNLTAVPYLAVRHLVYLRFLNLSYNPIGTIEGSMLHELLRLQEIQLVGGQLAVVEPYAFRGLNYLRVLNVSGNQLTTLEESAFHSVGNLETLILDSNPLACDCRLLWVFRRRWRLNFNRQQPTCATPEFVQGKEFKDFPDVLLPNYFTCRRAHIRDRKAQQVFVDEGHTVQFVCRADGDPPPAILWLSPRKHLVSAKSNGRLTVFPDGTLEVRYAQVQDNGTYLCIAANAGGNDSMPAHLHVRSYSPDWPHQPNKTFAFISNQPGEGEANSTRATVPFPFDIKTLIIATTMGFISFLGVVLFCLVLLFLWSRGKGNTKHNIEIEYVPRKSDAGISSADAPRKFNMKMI
Description: apparent KD, FACS saturation binding on CHO-K1-rLINGO-1 cells, IgG4 format. The procedure:
(§1) Cell based affinity of anti-LINGO-1 specific antibodies is determined by FACS saturation binding experiments. The determination of the apparent KD values is carried out identical to the procedure described above using anti-LINGO-1 Fab antibodies.
(§2) In detail, CHO-K1-hLINGO-1, CHO-K1-cmLINGO-1 or CHO-K1-rLINGO-1 are detached from culture flasks by versene, washed with FACS buffer and resuspended in FACS buffer. Purified anti-LINGO-1 IgG4s are serially diluted in FACS buffer and spread into round bottom 96-well microtiter plates (NUNC™, Wiesbaden, Germany). For each concentration, duplicate wells are incubated with 1.25×10⁴ cells for 30-60 min on ice in a total volume of 100 μl. […] Using this assay the following apparent KD values can be determined (Table 3).

For assay [2], the target named is human LINGO-1 expressed on CHO-K1 cells (CHO-K1-hLINGO-1) (human) (UniProt Q96FE5). Description: apparent KD, FACS saturation binding on CHO-K1-hLINGO-1 cells, IgG4, without 50% human cerebro-spinal fluid (control).
Assay [3] shares this target. Description: apparent KD, FACS saturation binding on CHO-K1-hLINGO-1 cells, IgG4, with 50% human cerebro-spinal fluid.
Assay [4] has the same target. Description: apparent KD, FACS saturation binding on CHO-K1-hLINGO-1 cells, IgG4 pre-incubated in FACS buffer + 50% human serum.
The target of assay [5] is T2, human LINGO-2 expressed on CHO-K1 cells (CHO-K1-hLINGO-2) (human, UniProt Q7L985 26-606).
T2 construct: range 26-606; not shown: 2 amino acid residue linker
T2 sequence (looked up): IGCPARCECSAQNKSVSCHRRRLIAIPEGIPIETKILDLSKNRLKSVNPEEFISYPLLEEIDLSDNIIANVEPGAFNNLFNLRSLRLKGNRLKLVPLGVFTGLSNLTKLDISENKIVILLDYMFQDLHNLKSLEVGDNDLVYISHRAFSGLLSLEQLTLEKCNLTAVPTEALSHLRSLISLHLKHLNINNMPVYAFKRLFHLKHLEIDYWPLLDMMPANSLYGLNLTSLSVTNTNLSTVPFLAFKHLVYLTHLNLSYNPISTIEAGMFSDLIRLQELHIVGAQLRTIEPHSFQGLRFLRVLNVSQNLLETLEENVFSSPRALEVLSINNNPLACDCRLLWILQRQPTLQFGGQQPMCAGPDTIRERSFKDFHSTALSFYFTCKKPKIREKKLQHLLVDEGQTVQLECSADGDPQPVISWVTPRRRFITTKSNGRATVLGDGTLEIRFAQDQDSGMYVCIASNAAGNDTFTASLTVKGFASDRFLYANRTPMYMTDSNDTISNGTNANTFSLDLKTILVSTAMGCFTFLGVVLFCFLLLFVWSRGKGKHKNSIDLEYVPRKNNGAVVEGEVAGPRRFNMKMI
Description: apparent KD, FACS saturation binding on CHO-K1-hLINGO-2 cells, IgG4 format.

Assay [6] concerns the target human LINGO-1 expressed on CHO-K1 cells (CHO-K1-hLINGO-1) (human) (UniProt Q96FE5). Description: ratio of apparent KDs, FACS saturation binding on CHO-K1-hLINGO-1 cells, IgG4, without against with 50% human CSF.
The target is the same in assay [7]. Description: FACS saturation binding on CHO-K1-hLINGO-1 cells, IgG4, with 50% human CSF against control.
For assay [8] the target is unchanged. Description: apparent KD, FACS saturation binding on CHO-K1-hLINGO-1 cells, IgG4 pre-incubated in FACS buffer + 2.6% BSA.
For assay [9] the target is unchanged. Description: apparent KD, FACS saturation binding on CHO-K1-hLINGO-1 cells, IgG4 pre-incubated in FACS buffer.
For assay [10] the target is unchanged. Description: apparent KD, FACS saturation binding on CHO-K1-hLINGO-1 cells, IgG4 format.
Assay [11] deals with T3, cynomolgus monkey LINGO-1 expressed on CHO-K1 cells (CHO-K1-cmLINGO-1) (cynomolgus monkey, UniProt Q9N008 34-614).
T3 construct: range 34-614; also called Cynomolgus LINGO-1; not shown: 2 amino acid residue linker
T3 sequence (looked up): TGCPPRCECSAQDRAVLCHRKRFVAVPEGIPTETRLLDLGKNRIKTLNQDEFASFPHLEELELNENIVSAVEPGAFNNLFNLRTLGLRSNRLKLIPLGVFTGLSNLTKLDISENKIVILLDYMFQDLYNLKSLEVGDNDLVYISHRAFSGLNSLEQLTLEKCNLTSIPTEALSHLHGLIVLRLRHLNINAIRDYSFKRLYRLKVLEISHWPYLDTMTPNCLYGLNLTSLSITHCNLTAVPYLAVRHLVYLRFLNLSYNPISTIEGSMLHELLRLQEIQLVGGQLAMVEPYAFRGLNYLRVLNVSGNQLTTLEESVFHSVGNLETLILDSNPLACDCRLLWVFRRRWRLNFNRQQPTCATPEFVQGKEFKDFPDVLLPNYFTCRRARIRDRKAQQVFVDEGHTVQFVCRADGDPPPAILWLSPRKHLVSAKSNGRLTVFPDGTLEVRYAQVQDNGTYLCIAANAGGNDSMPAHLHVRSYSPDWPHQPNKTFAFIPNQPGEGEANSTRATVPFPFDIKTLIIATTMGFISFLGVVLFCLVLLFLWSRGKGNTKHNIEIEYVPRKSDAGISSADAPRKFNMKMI
Description: apparent KD, FACS saturation binding on CHO-K1-cmLINGO-1 cells, IgG4 format. The procedure:
as §1, §2

The values that follow come from patent US20140255415A1 (Novartis, published 2014).

B1: anti-LINGO-1 IgG4 antibody 4784 (antibody, V domains shown)
VH: QVQLKESGPALVKPTQTLTLTCTFSGFSLSSSGVGVGWIRQPPGKALEWLAHIGSDDDKYYSTSLKTRLTISKDTSKNQVVLTMTNMDPVDTATYYCARNQQYGDGYPGYFDYWGQGTLVTVSS
VL: DIELTQPPSVSVAPGQTARISCSGDNIGNYYVYWYQQKPGQAPVLVIYEDTNRPSGIPERFSGSNSGNTATLTISGTQAEDEADYYCQSYDNLHEQVFGGGTKLTVLG
For B1, the Kd was 0.98 nM in assay [1]; 0.43 nM in assay [2]; 1.57 nM in assay [3]; 0.27 nM in [4]; 25.9 nM in [5]; 0.19 nM in assay [8]. For the same molecule, the results for the Kd in assay [9], in [10] and in assay [11] were 0.28 nM, 0.29 nM and 0.62 nM, respectively. For the same molecule, in assay [6], the App. KD ratio w/o CSF:w/ CSF turned out to be 0.27. The reduction in affinity in [7] is 73%.
